The results in this text go back to patent US20220275103A1 (CENTRICSBIO, published 2022).

One assay deals with T1, mouse CD300c antigen (mouse).
T1 sequence (A2A7V7 whole entry, looked up): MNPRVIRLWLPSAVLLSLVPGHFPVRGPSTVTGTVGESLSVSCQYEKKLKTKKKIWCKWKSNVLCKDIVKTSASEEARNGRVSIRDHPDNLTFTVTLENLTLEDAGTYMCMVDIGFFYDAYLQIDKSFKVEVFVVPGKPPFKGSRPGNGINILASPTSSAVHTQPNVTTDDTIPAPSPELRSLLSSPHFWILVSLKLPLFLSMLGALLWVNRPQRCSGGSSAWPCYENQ
In words: cell-based or functional assay.

The target of assay [1] is T2, CD300a antigen (12449-H08H, Sino Biological) (UniProt Q9UGN4 18-180).
T2 sequence (looked up): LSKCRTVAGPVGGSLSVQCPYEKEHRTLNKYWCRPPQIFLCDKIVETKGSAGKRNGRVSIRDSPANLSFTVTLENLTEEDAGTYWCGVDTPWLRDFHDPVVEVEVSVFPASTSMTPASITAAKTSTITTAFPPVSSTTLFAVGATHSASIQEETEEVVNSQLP
In words: binding ELISA, antigens coated at 8 ug/mL, HRP anti-Fc IgG, O.D 450 nm. As for the experimental part: (§1) Binding ELISA was performed to identify that the anti-CD300c monoclonal antibody CL7 specifically binds only to CD300c without binding to other B7 family proteins. More specifically, each of CD300c antigen, CD300a antigen, or seven B7 family protein antigens (PD-L1 [B7-H1] (Sino Biological), ICOS Ligand[B7-H2] (Sino Biological), CD276[B7-H3] (Sino Biological), B7-H4 (Sino Biological), CD80[B7-1] (Sino Biological), CD86[B7-2] (Sino Biological), CD273[PD-L2] (Sino Biological)) in a coating buffer (0.1 M sodium carbonate, pH 9.0) was coated on an ELISA plate at a concentration of 8 μg/mL per well, and then incubation was performed at 2° C. to 8° C. overnight so that the antigen bound to the plate. The unbound antigen was removed by performing washing with PBST three times, and then […] of blocking buffer (5% skim milk in PBST) was added to each well. Subsequently, blocking was performed at room temperature for 1 hour, and then washing was performed again with PBST. Thereafter, CL7 was diluted in quadruplicate with PBS, and subjected to reaction with the antigen at room temperature for 1 hour for antigen binding. 1 hour later, washing with PBST was performed three times. Then, a secondary antibody (HRP-conjugated anti-Fc IgG) diluted to 4 μg/mL in blocking buffer was added thereto, and reaction was allowed to proceed at room temperature for 1 hour. Subsequently, the unbound antibody for detection was removed using PBST, and then a TMB solution was added thereto. Reaction was allowed to proceed for 10 minutes for development. Then, 2 N sulfuric acid solution was added to terminate the development, and the absorbance was measured at 450 nm to identify the antibody that specifically binds to the CD300c antigen.
Background: An ELISA detects its analyte on a solid surface through an enzyme-linked reagent.

Assay [2] deals with PD-L1 [B7-H1] (Sino Biological) (UniProt Q9NZQ7 19-239, limits assumed). The description is as above. How it is done: as §1
For assay [3], the target named is T3, ICOS Ligand[B7-H2] (Sino Biological) (UniProt O75144 19-258, limits assumed).
T3 sequence (looked up): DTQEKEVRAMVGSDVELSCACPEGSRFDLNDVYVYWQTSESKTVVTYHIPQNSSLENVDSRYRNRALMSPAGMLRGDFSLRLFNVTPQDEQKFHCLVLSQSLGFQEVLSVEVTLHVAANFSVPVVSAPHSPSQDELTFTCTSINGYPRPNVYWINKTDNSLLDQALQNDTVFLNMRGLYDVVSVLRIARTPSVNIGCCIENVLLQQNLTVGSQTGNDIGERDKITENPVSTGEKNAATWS
The assay is described as above. How it is done: as §1

The target in assay [4] is T4, CD276[B7-H3] (Sino Biological) (UniProt Q5ZPR3 29-461, limits assumed).
T4 sequence (looked up): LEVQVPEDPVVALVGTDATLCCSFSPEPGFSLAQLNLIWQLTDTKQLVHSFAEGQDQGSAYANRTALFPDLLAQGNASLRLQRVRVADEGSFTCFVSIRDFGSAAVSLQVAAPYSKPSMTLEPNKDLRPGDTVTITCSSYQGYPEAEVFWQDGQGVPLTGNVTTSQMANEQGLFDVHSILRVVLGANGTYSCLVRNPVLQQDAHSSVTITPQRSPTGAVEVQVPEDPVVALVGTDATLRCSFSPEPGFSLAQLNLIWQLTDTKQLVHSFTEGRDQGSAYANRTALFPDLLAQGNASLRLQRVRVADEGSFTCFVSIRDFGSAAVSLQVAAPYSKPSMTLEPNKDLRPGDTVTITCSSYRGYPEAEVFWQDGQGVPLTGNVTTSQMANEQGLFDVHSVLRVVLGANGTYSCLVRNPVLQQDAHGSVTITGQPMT
The assay is described as above. As for the experimental part:
as §1

Another assay has as its target T5, B7-H4 (Sino Biological) (UniProt Q7Z7D3 25-258, limits assumed).
T5 sequence (looked up): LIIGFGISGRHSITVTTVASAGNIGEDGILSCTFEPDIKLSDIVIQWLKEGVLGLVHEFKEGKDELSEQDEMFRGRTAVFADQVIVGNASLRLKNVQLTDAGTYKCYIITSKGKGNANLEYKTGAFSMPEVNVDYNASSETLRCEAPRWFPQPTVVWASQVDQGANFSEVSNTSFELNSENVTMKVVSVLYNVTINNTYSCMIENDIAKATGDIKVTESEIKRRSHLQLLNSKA
Described as above. As for the experimental part: as §1

For assay [5], the target named is T6, CD80[B7-1] (Sino Biological) (UniProt P33681 35-242, limits assumed).
T6 sequence (looked up): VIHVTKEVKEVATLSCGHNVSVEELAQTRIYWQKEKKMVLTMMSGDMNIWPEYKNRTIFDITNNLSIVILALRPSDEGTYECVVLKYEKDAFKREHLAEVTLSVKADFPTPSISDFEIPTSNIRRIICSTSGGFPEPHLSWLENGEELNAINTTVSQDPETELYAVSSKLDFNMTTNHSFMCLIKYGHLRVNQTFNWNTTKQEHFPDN
The assay is described as above. How it is done: as §1

The target in assay [6] is T7, CD86[B7-2] (Sino Biological) (UniProt P42081 24-247, limits assumed).
T7 sequence (looked up): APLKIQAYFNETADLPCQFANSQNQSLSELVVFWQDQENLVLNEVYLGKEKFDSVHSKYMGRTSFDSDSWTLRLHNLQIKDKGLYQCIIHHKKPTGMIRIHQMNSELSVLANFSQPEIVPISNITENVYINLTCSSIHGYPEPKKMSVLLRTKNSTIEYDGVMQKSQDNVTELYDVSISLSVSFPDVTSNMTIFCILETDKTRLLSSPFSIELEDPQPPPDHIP
Described as above. As for the experimental part: as §1

Assay [7] addresses T8, CD273[PD-L2] (Sino Biological) (UniProt Q9BQ51 20-219, limits assumed).
T8 sequence (looked up): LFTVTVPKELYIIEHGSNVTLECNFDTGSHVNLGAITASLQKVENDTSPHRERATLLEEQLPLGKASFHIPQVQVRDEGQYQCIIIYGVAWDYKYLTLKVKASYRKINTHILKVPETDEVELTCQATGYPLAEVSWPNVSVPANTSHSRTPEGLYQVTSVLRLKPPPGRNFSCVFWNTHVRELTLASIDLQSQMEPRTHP
The assay is described as above. As for the experimental part: as §1

PD-L1 [B7-H1] (Sino Biological), sequence (Q9NZQ7 19-239 limits assumed): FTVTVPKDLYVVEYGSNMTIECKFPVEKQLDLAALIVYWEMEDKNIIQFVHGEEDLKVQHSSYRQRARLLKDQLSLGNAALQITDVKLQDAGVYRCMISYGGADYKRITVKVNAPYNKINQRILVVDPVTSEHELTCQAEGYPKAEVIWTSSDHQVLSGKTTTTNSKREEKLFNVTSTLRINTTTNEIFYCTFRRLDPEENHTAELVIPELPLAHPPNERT

B1: SL18 (antibody, V domains shown)
VH: RVQLLESGGGLVQPGGSLRLSCAASGFTFSDYHMHWVRQAPGKGLEWVSTISSSGGYTYYAESVKSRFTISRDNSKNTLYLQMNSLRAEDTAVYYCARSIRLPLDYWGQGTLVTVSS
VL: QSVLTQPPSASGTPGQRVTISCSGNNIGSKGVHWYQQLPGTAPKLLIYEDSKRPSGVRDRFSGSKSGTSASLAISGLRSEDEADYYCQSYDSTKGVVFGGGTKLTVL
For B1, in the assay with mouse CD300c antigen, the “cancer cell proliferation inhibitory effect on CT26 mouse colorectal cancer cells (CCK-8, 10 ug/mL antibody, 5 days), higher than the control group” value was found to be 38%.

B2: CL10 (antibody, V domains shown)
VH: EVQLLESGGGLVQPGGSLRLSCAASGFTFSSYGMHWVRQAPGKGLEWVSAISGSGGSTYYADSVKGRFTISRDNSKNTLYLQMNSLRAEDTAVYYCASGYGLMDVWGQGTLVTVSS
VL: QSVLTQPPSASGTPGQRVTISCTRSSGIIASNYVQWYQQLPGTAPKLLIYRNNQRPSGVPDRFSGSKSGTSASLAISGLRSEDEADYYCSSYAGNNNLVFGGGTKLTVL
Turning to B2, the “cancer cell proliferation inhibitory effect on CT26 mouse colorectal cancer cells (CCK-8, 10 ug/mL antibody, 5 days), higher than the control group” value with mouse CD300c antigen turned out to be 15%.

B3: CL7 (antibody, V domains shown)
VH: EVQLLESGGGLVQPGGSLRLSCAASGFTFSRYAMSWVRQAPGKGLEWVSAISGSGGSTYYADSVKGRFTISRDNSKNTLYLQMNSLRAEDTAVYYCARSSQGIFDIWGQGTLVTVSS
VL: QSVLTQPPSASGTPGQRVTISCSGNNIGTRRVHWYQQLPDTAPKLLIYSKNNRPSGVPDRFSGSKSGTSASLAISGLRSEDEADYYCAAWDDSLSGPVFGGGTKLTVL
notes: VH3VL1 phage library clone; also called anti-CD300c monoclonal antibody CL7; CB301 antibody CL7
As for B3, the “cancer cell proliferation inhibitory effect on CT26 mouse colorectal cancer cells (CCK-8, 10 ug/mL antibody, 5 days), higher than the control group” value with mouse CD300c antigen was found to be 66%. The binding result (in assay [1]; in assay [2]; in assay [3]; in assay [4]; with B7-H4 (Sino Biological); in assay [5]) was “no binding (tested: log10 about 0.4 (about 2.5 ug/ml))” throughout. Moreover, the binding result in assay [6] and in [7] was “no binding (tested: log10 about 0.4 (about 2.5 ug/ml))” in each case.
